Measurements reported in the supplement of paper PMC10567573.

B1: TMEM106C (parent)
chain: TVPEILVHNIVIFMRTSVKISYIG
B2: BEX1 (parent)
chain: EENMERIGEEVRQLMEKLREKQLS

Variants of: B1
Test: protein stability index of a GFP-peptide fusion (GPS, HEK-293T) (PSI 1-6); higher = more stable
Conditions: c terminus: a fixed tail appended
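Note: lentivirally expressed fusions sorted by FACS into six bins by GFP to DsRed ratio, PSI derived from sequencing read proportions per bin multiplied by bin number.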

Protein stability index, by site and new letter:
H8: Q 2.63 | K 3.34 | V 2.81 | T 2.41 | F 3.98 | G 2.27 | D 3.5 | L 3.28
V2: I 2.67 | K 2.81 | H 2.77 | F 2.95 | D 2.5 | Y 3.53 | S 2.63 | G 2.98 | N 2.01 | E 2.47
F13: Y 3.23 | L 4.27 | T 2.99 | N 3.17 | E 2.27 | C 3.25 | S 2.83 | P 3.22 | V 3.33 | R 2.3
I10: H 3.4 | A 3.07 | N 2.65 | V 2.92 | E 3.64 | D 2.47 | Y 2.71 | T 2.67 | F 3.5 | G 4.19 | P 2.49 | M 3.31
V18: N 3.44 | T 3.66 | P 2.92 | L 4.24 | M 3.05 | S 3.02 | H 2.13
I20: A 2.52 | D 3.71 | Y 3.86 | C 3.79 | P 3.39 | G 3.25 | L 3.56 | E 3.72 | H 4.04 | R 2.13 | W 2.88
N9: P 3.7 | C 2.85 | M 3.79 | H 2.15 | I 2.82 | R 2.94
T16: F 3.06 | N 2.98 | W 2.85 | I 1.93 | D 2.97 | A 1.5 | E 2.54 | S 2.54
M14: G 3.13 | R 2.21 | W 2.87 | F 2.97 | L 3.05 | E 3.79 | I 2.85 | N 3.25 | K 3.19 | Q 3.58 | D 3.11 | P 3.45
R15: L 3.26 | S 3.18 | N 3.2 | M 3.77 | T 2.69 | K 3.46 | I 4.22 | A 2.33 | F 3.57 | P 2.47 | Q 2.73 | H 2.94
G24: W 2.75 | V 2.95 | C 2.8 | H 2.84 | K 2.98 | L 2.82 | N 3.8 | R 3.06 | D 2.27
L6: C 4.05 | W 2.8 | H 3.88 | A 3.67 | P 2.63 | V 4.06 | E 2.11 | M 2.78 | T 2.83
E4: F 2.67 | V 3.21 | I 2.02 | K 2.94 | G 3.29 | L 3.55 | D 3.56 | S 2.88 | T 2.5
I23: A 3.15 | F 3.86 | N 3.26 | Q 4.15 | V 2.4 | K 4.25 | P 3.49 | Y 3.25 | W 3.22 | S 3.05
T1: E 2.4 | W 2.7 | I 4.36 | M 3.02
P3: K 3.27 | H 2.52 | Q 2.68 | G 3.81 | N 1.33 | R 3.41 | A 3.18
V7: M 2.05 | Q 3.02 | W 3.68 | D 2.53 | R 2.44 | Y 3.26 | C 3.89 | A 3.25 | I 4.62 | S 2.37 | K 3.79
K19: D 3.61 | Q 3.02 | H 2.62 | E 4.38 | F 3.24 | A 3.17 | S 3.4 | N 3.38
I12: V 2.64 | R 3.25 | F 2.8 | T 2.07 | C 2.8 | Q 2.11 | W 2.08 | Y 3.05 | L 3.84 | M 2.29 | P 2.19 | N 3.08 | E 3.69
S17: C 3.88 | N 3.88 | W 3.7 | T 3.17 | Q 3.81 | L 2.29 | E 3.3 | I 2.2 | R 3.66 | K 4.27 | F 4.33
Y22: H 2.67 | N 3.33 | Q 3.85 | I 4.35 | T 2.84 | L 2.73 | A 3.58 | G 2.47 | V 4.14 | D 2.46 | P 3 | R 3.04
V11: Q 1.83 | Y 2.44 | P 2.92 | M 2.77 | T 3.11 | C 3.91 | G 3.12 | D 2.52 | E 3.64
I5: G 2.54 | W 2.49 | Y 2.58 | H 4.38 | R 2.19 | E 4.16 | P 3.34 | K 1.73 | D 3.24
S21: W 1.95 | Q 2.04 | C 2.77 | T 3.42 | M 3.51 | K 2.53 | E 3.24 | I 3.51 | L 3.4

Variants of: B2
Test: as above
Conditions: c terminus: a fixed tail appended

Protein stability index, by site and new letter:
N3: P 4.71 | D 3.5 | C 3.89 | A 3.99 | Q 3.94 | R 3.79 | F 4.74 | G 5.04 | W 4.32 | T 3.84
E2: Y 3.72 | Q 4.2 | D 4.48 | I 4 | H 4.37 | A 2.97 | F 4.46 | R 4.55 | P 4.34 | S 4.23 | K 3.64 | M 4.05 | C 4.07 | W 4.53
M4: H 5.09 | Y 4.55 | G 5.48 | T 5.03 | D 4.81 | I 4.28 | K 5.35 | E 5.3 | P 5.96 | L 4.16 | Q 3.58 | S 5.45 | R 4.75
E9: N 4.02 | D 3.63 | F 3.7 | A 4.76 | G 4.67 | K 4.2 | I 4.39 | S 4.51 | P 4.98
E1: L 3.54 | R 3.55 | F 4.32 | S 4 | K 3.81 | C 4.29 | Q 4.41 | N 4.31 | D 2.37 | T 4.56 | Y 4.14 | I 4.77
G8: T 4.55 | Q 4.36 | Y 4.5 | K 4.32 | C 4.73 | R 4.18 | L 3.33 | W 3.44 | H 4.09 | S 4.47 | I 3.62 | E 4.04 | A 3.25
R6: V 4.81 | E 5.71 | F 3.72 | C 4.25 | Y 4.57 | T 4.85 | I 3.92 | K 4.8 | G 5.28 | Q 4.04 | W 4.69 | A 4.94 | N 3.84 | H 5.43 | P 5.03
I7: C 4.87 | R 5.16 | L 4.74 | F 4.78 | S 5.17 | M 4.83 | Q 5.33 | H 5.86 | K 4.23 | T 5.18 | G 4.97 | Y 4.92
E5: V 3.3 | Q 4.01 | F 4.54 | A 4.28 | W 3.31 | N 4.96 | C 3.74 | P 4.77 | L 3.89 | R 4.33
